From patent US5972698 (Novartis Corporation, dated 1999)

Biological target: bovine trypsin (bovine, UniProt P00760)
Assay: equilibrium dissociation constants (Ki) from enzyme inhibition

binding result: binds
Binder: KKVCACPKILKPVCGSDGRTYANSCIARCNGVSIKSEGSCPTGILN (other)
